± gives the uncertainty stated by the source.
B1: library; numbered along this chain (parent)
chain: MEVVDPQQLGMFTEGELMSVGMDTFIHRIDSTEVIYQPRRKRAKLIGKYLMGDLLGEGSYGKVKEVLDSETLCRRAVKILKKKKLRRIPNGEANVKKEIQLLRRLRHKNVIQLVDVLYNEEKQKMYMVMEYCVCGMQEMLDSVPEKRFPVCQAHGYFCQLIDGLEYLHSQGIVHKDIKPGNLLLTTGGTLKISDLGVAEALHPFAADDTCRTSQGSPAFQPPEIANGLDTFSGFKVDIWSAGVTLYNITTGLYPFEGDNIYKLFENIGKGSYAIPGDCGPPLSDLLKGMLEYEPAKRFSIRQIRQHSWFRKKHPPAEAPVPIPPSPDTKDRWRSMTVVPYLEDLHGADEDEDLFDIEDDIIYTQDFTVPGQVPEEEASHNGQRRGLPKAVCMNGTEAAQLSTKSRAEGRAPNPARKACSASSKIRRLSACKQQ

Variants of: B1
Experiment: STK11 functional score (HeLa growth suppression), rescaled enrichment; synonymous median = 1, nonsense median = 0 (normalised score)
Settings: with HeLa; variant type: missense
Method in brief: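 In HeLa, Bxb1 integrated POPCode codon-randomised libraries of codon-optimised STK11 at an AAVS1 landing pad; three regions were each transfected three times. Integrants, marked as BFP-negative and mCherry-positive, were FACS-sorted 4–5 days after electroporation and expanded for about two weeks before tiled gDNA amplicons were sequenced on NextSeq (~2 million reads per tile). Each functional score is a post/pre-selection log ratio corrected to wild type, rescaled to the synonymous and nonsense medians, and merged across codons and replicate transfections, with error estimated by bootstrapping.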
MEVVDPQQLGMFTEGELMSVGMDTFIHRIDSTEVIYQPRRKRAKLIGKYLMGDLLGEGSYGKVKEVLDSETLCRRAVKILKKKKLRRIPNGEANVKKEIQLLRRLRHKNVIQLVDVLYNEEKQKMYMVMEYCVCGMQEMLDSVPEKRFPVCQAHGYFCQLIDGLEYLHSQGIVHKDIKPGNLLLTTGGTLKISDLGVAEALHPFAADDTCRTSQGSPAFQPPEIANGLDTFSGFKVDIWSAGVTLYNITTGLYPFEGDNIYKLFENIGKGSYAIPGDCGPPLSDLLKGMLEYEPAKRFSIRQIRQHSWFRKKHPPAEAPVPIQPSPDTKDRWRSMTVVPYLEDLHGADEDEDLFDIEDDIIYTQDFTVPGQVPEEEASHNGQRRGLPKAVCMNGTEAAQLSTKSRAEGRAPNPARKACSASSKIRRLSACKQQ [P323Q] showed an STK11 functional score of 0.422 ± 0.67. For MEVVDPQQLGMFTEGELMSVGMDTFIHRIDSTEVIYQPRRKRAKLIGKYLMGDLLGEGSYGKVKEVLDSETLCRRAVKILKKKKLRRIPNGEANVKKEIQLLRRLRHKNVIQLVDVLYNEEKQKMYMVMEYCVCGMQEMLDSVPEKRFPVCQAHGYFCQLIDGLEYLHSQGIVHKDIKPGNLLLTTGGTLKISDLGVAEALHPFAADDTCRTSQGSPAFQPPEIANGLDTFSGFKVDIWSAGVTLYNITTGLYPFEGDNIYKLFENIGKGSYAIPGDCGPPLSDLLKGMLEYEPAKRFSIRQIRQHSWFRKKHPPAEAPVPINPSPDTKDRWRSMTVVPYLEDLHGADEDEDLFDIEDDIIYTQDFTVPGQVPEEEASHNGQRRGLPKAVCMNGTEAAQLSTKSRAEGRAPNPARKACSASSKIRRLSACKQQ [P323N], the STK11 functional score was 1.53 ± 0.15. With MEVVDPQQLGMFTEGELMSVGMDTFIHRIDSTEVIYQPRRKRAKLIGKYLMGDLLGEGSYGKVKEVLDSETLCRRAVKILKKKKLRRIPNGEANVKKEIQLLRRLRHKNVIQLVDVLYNEEKQKMYMVMEYCVCGMQEMLDSVPEKRFPVCQAHGYFCQLIDGLEYLHSQGIVHKDIKPGNLLLTTGGTLKISDLGVAEALHPFAADDTCRTSQGSPAFQPPEIANGLDTFSGFKVDIWSAGVTLYNITTGLYPFEGDNIYKLFENIGKGSYAIPGDCGPPLSDLLKGMLEYEPAKRFSIRQIRQHSWFRKKHPPAEAPVPILPSPDTKDRWRSMTVVPYLEDLHGADEDEDLFDIEDDIIYTQDFTVPGQVPEEEASHNGQRRGLPKAVCMNGTEAAQLSTKSRAEGRAPNPARKACSASSKIRRLSACKQQ [P323L] the STK11 functional score was 0.92 ± 0.24. MEVVDPQQLGMFTEGELMSVGMDTFIHRIDSTEVIYQPRRKRAKLIGKYLMGDLLGEGSYGKVKEVLDSETLCRRAVKILKKKKLRRIPNGEANVKKEIQLLRRLRHKNVIQLVDVLYNEEKQKMYMVMEYCVCGMQEMLDSVPEKRFPVCQAHGYFCQLIDGLEYLHSQGIVHKDIKPGNLLLTTGGTLKISDLGVAEALHPFAADDTCRTSQGSPAFQPPEIANGLDTFSGFKVDIWSAGVTLYNITTGLYPFEGDNIYKLFENIGKGSYAIPGDCGPPLSDLLKGMLEYEPAKRFSIRQIRQHSWFRKKHPPAEAPVPIKPSPDTKDRWRSMTVVPYLEDLHGADEDEDLFDIEDDIIYTQDFTVPGQVPEEEASHNGQRRGLPKAVCMNGTEAAQLSTKSRAEGRAPNPARKACSASSKIRRLSACKQQ [P323K] gave an STK11 functional score of 1.58 ± 0.15. Work on MEVVDPQQLGMFTEGELMSVGMDTFIHRIDSTEVIYQPRRKRAKLIGKYLMGDLLGEGSYGKVKEVLDSETLCRRAVKILKKKKLRRIPNGEANVKKEIQLLRRLRHKNVIQLVDVLYNEEKQKMYMVMEYCVCGMQEMLDSVPEKRFPVCQAHGYFCQLIDGLEYLHSQGIVHKDIKPGNLLLTTGGTLKISDLGVAEALHPFAADDTCRTSQGSPAFQPPEIANGLDTFSGFKVDIWSAGVTLYNITTGLYPFEGDNIYKLFENIGKGSYAIPGDCGPPLSDLLKGMLEYEPAKRFSIRQIRQHSWFRKKHPPAEAPVPIMPSPDTKDRWRSMTVVPYLEDLHGADEDEDLFDIEDDIIYTQDFTVPGQVPEEEASHNGQRRGLPKAVCMNGTEAAQLSTKSRAEGRAPNPARKACSASSKIRRLSACKQQ [P323M] yielded an STK11 functional score of 1.55 ± 0.15. MEVVDPQQLGMFTEGELMSVGMDTFIHRIDSTEVIYQPRRKRAKLIGKYLMGDLLGEGSYGKVKEVLDSETLCRRAVKILKKKKLRRIPNGEANVKKEIQLLRRLRHKNVIQLVDVLYNEEKQKMYMVMEYCVCGMQEMLDSVPEKRFPVCQAHGYFCQLIDGLEYLHSQGIVHKDIKPGNLLLTTGGTLKISDLGVAEALHPFAADDTCRTSQGSPAFQPPEIANGLDTFSGFKVDIWSAGVTLYNITTGLYPFEGDNIYKLFENIGKGSYAIPGDCGPPLSDLLKGMLEYEPAKRFSIRQIRQHSWFRKKHPPAEAPVPIIPSPDTKDRWRSMTVVPYLEDLHGADEDEDLFDIEDDIIYTQDFTVPGQVPEEEASHNGQRRGLPKAVCMNGTEAAQLSTKSRAEGRAPNPARKACSASSKIRRLSACKQQ [P323I] gave an STK11 functional score of 1.52 ± 0.14. With MEVVDPQQLGMFTEGELMSVGMDTFIHRIDSTEVIYQPRRKRAKLIGKYLMGDLLGEGSYGKVKEVLDSETLCRRAVKILKKKKLRRIPNGEANVKKEIQLLRRLRHKNVIQLVDVLYNEEKQKMYMVMEYCVCGMQEMLDSVPEKRFPVCQAHGYFCQLIDGLEYLHSQGIVHKDIKPGNLLLTTGGTLKISDLGVAEALHPFAADDTCRTSQGSPAFQPPEIANGLDTFSGFKVDIWSAGVTLYNITTGLYPFEGDNIYKLFENIGKGSYAIPGDCGPPLSDLLKGMLEYEPAKRFSIRQIRQHSWFRKKHPPAEAPVPIRPSPDTKDRWRSMTVVPYLEDLHGADEDEDLFDIEDDIIYTQDFTVPGQVPEEEASHNGQRRGLPKAVCMNGTEAAQLSTKSRAEGRAPNPARKACSASSKIRRLSACKQQ [P323R] the STK11 functional score was 1.01 ± 0.38.

From the supplement of paper PMC12338614
